Measured values taken from article PMC2782468 (Nature structural & molecular biology, 2009).
One block for each binder: values may come before it.

Tests used:
[1] = biological target: T1, wild-type CBP80 expressed alone in insect cells (human, UniProt Q09161 1-790); test: pull-down
T1 sequence: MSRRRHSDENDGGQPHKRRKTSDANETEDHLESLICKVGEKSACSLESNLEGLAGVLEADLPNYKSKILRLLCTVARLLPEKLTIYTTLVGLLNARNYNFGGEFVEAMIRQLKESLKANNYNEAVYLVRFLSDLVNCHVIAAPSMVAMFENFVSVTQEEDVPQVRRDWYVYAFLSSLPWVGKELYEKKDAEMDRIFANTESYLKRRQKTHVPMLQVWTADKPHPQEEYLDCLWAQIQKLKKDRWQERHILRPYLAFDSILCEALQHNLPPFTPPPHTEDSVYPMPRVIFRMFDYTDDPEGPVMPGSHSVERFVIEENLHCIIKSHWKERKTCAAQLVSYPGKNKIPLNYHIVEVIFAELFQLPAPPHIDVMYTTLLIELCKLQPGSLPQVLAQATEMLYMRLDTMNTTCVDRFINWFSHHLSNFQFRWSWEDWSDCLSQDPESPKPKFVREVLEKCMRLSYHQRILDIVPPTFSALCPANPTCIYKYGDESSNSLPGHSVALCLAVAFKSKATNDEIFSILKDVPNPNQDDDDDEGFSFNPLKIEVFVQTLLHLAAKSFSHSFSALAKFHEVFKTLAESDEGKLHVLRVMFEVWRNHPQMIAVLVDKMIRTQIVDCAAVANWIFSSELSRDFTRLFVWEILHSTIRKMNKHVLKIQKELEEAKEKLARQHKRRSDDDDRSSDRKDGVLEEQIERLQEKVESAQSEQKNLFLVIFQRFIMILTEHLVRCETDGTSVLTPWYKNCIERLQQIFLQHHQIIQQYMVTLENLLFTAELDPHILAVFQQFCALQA

[2] = biological target: T2, full-length human importin-β1 (human, UniProt Q14974 1-876); test: native gel or EMSA
T2 sequence (Q14974 whole entry): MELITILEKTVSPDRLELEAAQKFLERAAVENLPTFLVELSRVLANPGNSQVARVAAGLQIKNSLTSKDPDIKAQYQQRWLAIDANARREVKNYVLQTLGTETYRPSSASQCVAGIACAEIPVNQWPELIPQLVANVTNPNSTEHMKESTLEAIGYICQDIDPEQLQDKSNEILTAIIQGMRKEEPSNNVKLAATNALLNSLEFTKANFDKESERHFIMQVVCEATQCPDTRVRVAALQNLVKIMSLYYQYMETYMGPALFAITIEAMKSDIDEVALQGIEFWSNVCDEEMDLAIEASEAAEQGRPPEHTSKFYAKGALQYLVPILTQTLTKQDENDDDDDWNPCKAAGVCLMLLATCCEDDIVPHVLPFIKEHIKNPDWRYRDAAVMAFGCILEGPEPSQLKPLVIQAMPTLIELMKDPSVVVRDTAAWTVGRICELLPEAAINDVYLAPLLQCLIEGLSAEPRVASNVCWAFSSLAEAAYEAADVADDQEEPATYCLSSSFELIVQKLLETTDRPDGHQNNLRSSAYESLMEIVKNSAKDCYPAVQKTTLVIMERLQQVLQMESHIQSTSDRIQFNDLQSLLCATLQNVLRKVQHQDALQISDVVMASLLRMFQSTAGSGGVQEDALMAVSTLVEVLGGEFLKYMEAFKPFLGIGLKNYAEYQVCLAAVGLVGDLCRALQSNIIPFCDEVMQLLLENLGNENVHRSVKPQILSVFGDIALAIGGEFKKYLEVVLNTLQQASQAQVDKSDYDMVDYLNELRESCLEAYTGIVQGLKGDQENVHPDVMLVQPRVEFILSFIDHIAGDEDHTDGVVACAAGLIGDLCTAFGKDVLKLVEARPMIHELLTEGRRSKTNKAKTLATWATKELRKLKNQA

[3] = biological target: T2, full-length human importin-β1; test: pull-down
[4] = biological target: T3, full-length human importin-α isoform 1 (karyopherin-α2) (human, UniProt P52292 1-529); test: SEC
[5] = biological target: T3, full-length human importin-α isoform 1 …; test: pull-down

B1: His-tagged CBP20 Δ1–14 (domain or fragment)
chain: VELSQYRDQHFRGDNEEQEKLLKKSCTLYVGNLSFYTTEEQIYELFSKSGDIKKIIMGLDKMKKTACGFCFVEYYSRADAENAMRYINGTRLDDRIIRTDWDAGFKEGRQYGRGRSGGQVRDEYRQDYDAGRGGYGKLAQNQ
binding result [1]: binds

B2: CBP20 Δ1–14 (domain or fragment)
chain: B1 chain
binding result [2]: binds

B3: His-tagged CBP20 Δ1–14Δ126–156 (domain or fragment)
chain: VELSQYRDQHFRGDNEEQEKLLKKSCTLYVGNLSFYTTEEQIYELFSKSGDIKKIIMGLDKMKKTACGFCFVEYYSRADAENAMRYINGTRLDDRIIRTDWDAGFKEGRQY
binding result [1]: binds

B4: CBP20 Δ126–156 (domain or fragment)
chain: MSGGLLKALRSDSYVELSQYRDQHFRGDNEEQEKLLKKSCTLYVGNLSFYTTEEQIYELFSKSGDIKKIIMGLDKMKKTACGFCFVEYYSRADAENAMRYINGTRLDDRIIRTDWDAGFKEGRQY
binding result [2]: binds

B5: His-tagged CBP20 Δ126–156 (domain or fragment)
chain: B4 chain
binding result [1]: binds

B6: His-tagged full-length CBP20 (natural protein)
chain: MSGGLLKALRSDSYVELSQYRDQHFRGDNEEQEKLLKKSCTLYVGNLSFYTTEEQIYELFSKSGDIKKIIMGLDKMKKTACGFCFVEYYSRADAENAMRYINGTRLDDRIIRTDWDAGFKEGRQYGRGRSGGQVRDEYRQDYDAGRGGYGKLAQNQ
binding result [1]: binds
binding result [3]: binds

More lines, now with the values ahead:

binding result [4]: binds
B7: human nuclear cap-binding complex (CBC), CBP20 and CBP80 co-expressed (complex)
chain 1: T1 sequence
chain 2: B6 chain

binding result [5]: binds
B8: apo-CBC reconstituted from His-tagged CBP20 and CBP80 (complex)
chain 1: B6 chain
chain 2: T1 sequence

binding result [2]: binds
B9: full-length CBP20 (natural protein)
chain: B6 chain
